The series can be described thus: yeast display, Sf9 membrane polyspecificity reagent, FACS + sequencing; frameworks hold sequencing errors. The method, boiled down:
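Genes from sorted yeast were amplified by colony PCR, read by MiSeq 2 × 250 sequencing and filtered on CDR length. These cells carried a synthetic nanobody library in Saccharomyces cerevisiae BJ5465 and were sorted by FACS into low and high (top ~1%) gates on anti-HA and streptavidin fluorescence. Polyreactivity is labelled according to the gate of origin.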
For “QVQHVESRGGLVQAGGSLRLSCAASGSTIISNAQGWYRLAPGKERELVASIRSSGSTNYADSVKGRFTISRDNAKNTVYLKMNSLKPEDTAVYYCAAGSYWVQFQYDYWGQGTQVTVSS”, the “polyreactivity (PSR sort gate)” value is recorded as “low polyreactivity”.
On to “QVQHVESVGGLVQAGGSLRLSCAASGSIFFWYDMGWYRQAPGKERELVASISSGGSTYYADSVKGRFTISRDNAKNTVYLQMNSLKPEDNAVYYCNAKSWSPAKSFSFFRFDYWGQGTQVTVSS”, for which the “polyreactivity (PSR sort gate)” value is reported as “low polyreactivity”.
To “QVQHVESVGGLVQAGGSLRLSCASSGRTLFYYTMRWYRQARGTERELVAAISSGDSTNYADSVKGRFTISRDNAKNTVYLHMNSLKPEDTAVYYCAARFYQIRRRYDYWGQGTQVTVSS” belongs “low polyreactivity”; to “QVQHVQSGGGLVQAGGSLPLSCDASASIFKYYTMGWYRQAPGKERELVATINFSGASTYYADSVKGRFTISRDNAKNTVYLQINSLKPEDTAVYYCAAVSSSTYRYYYWGQGTQVTVSS”, “high polyreactivity”.
The same measure for “QVQIEESGGGLVQAGGSLRLSCAASGFIFVWYAMGWYRQAPGKERELVAAISRDGDTNYADSVKGRFTISRDNAKNTVYLQMNSLKPEDTAVDYCARTYIYSGRIYNYGYWGQGTQVTVSS”: “high polyreactivity”; for “QVQIEESGGGLVQAGGSLRLSCAASGNIFPGNDMGWYRQAPRKERELVAAITSRDGSTYYADSVKGRFTISRDNAKNTVYLQMNSLKPEDTAVYYCNTDPDLYYLATAGYWSHDYWGQGTQVTVSS”: “low polyreactivity”; for “QVQIEESGGGLVQAGGSLRLSCAASGSIFVVYALGWYRPAPGKERELVAGISRNGGRTYYADSVKGRFTISRDNAKITVYLQMNILKPEDTAVYYCNAYRPSRHDYWGQGTQVTVSS”: “high polyreactivity”.
The same measure for “QVQIEESGGGLVQAGGSLRLTCAASGRIFYLNAMGWYRQAPGKERELVAGITNSTTGTYYADSVKGRFTISRDNAKNSVYLQMNSLKPEDTAVFYCNTDVAYEEPVETYDYWGQGTQVTVSS”: “low polyreactivity”; for “QVQIGESGGGLVQAGGSLRLSCAACGFIFYRYAMGWYRQAPGKERELVAAISWSGGTTYYADSVKGRFTISRDNAKNTDYLQMNSLKPEDTAVYYCNARYPRSSPFGYWGQGTQVTVSS”: “high polyreactivity”; for “QVQILESGGGLVKAGGSLRLSCAASGYTFYANAMGWYRKAPGKEREFVASITWSGGSTYYADSVKGRFTISRDNAKNTVYLQMNSLKPEDTAVDYCAADVIGDLRWYRDEYLGQGTQVTVSS”: “low polyreactivity”.
With “QVQIVDSCGGLVQSGGSLRLSCDASGSTFLTNSMGWYRQAPGKERELVAAITLRGGRTYYADSVKGRFTISRDNALNTVYLQMNSLKPEDSAVYYCNARNYYYPSDRDYWGQGTQVTVSS”, the “polyreactivity (PSR sort gate)” value is “low polyreactivity”.
With “QVQIVDSGGGLVQAVGSLRLSCAASGSIIKKYAMGWYRQAPGKERELVAAISSTCGSTKYADSVKGRFTISRDNAKNTVYLQMNSLKAEDTAVYYCAVRYKWPYDYWGQGTQVTVSS”, the “polyreactivity (PSR sort gate)” value was “high polyreactivity”.
Take “QVQIVESGGALVQAGCSLRLSCAASGSTFWYYVMGWYRQAPGKERELVAAISIVGSTYYADSVKGRFTLSRDNAKNTVYLQMNSLKPEDTAVYYCAADIYQYGYDYWGQGTQVTVSS”: the “polyreactivity (PSR sort gate)” value was “low polyreactivity”.
To “QVQIVESGGALVQAGGSLRFSCAASGSIFFSNTRGWYRQAPGKEREFVAAITWSTGNTYYADSVKGRFTISRDNAKNTVYLQMNSLKPEDTAVYYCYAEYLVITWYGGVEFDYWGQGTQVTVSS” belongs “low polyreactivity”.
Consider “QVQIVESGGGLDQAGGSLRLSCAASGRTFVSNDMGRYRQAPGKERELVATISSGASTYYADSVKGRFTISRDNAKTTVYLQMISLKPEDNAVYYCAAEDLVFGGGYDYWGQGTQVNVSS”, for which the “polyreactivity (PSR sort gate)” value is on record as “low polyreactivity”.
To “QVQIVESGGGLDQAGGSLRLSCAATGSTFYWNAMGWYRQAPWKERELVAAISSGGSTYYADSVKGRFTISRDNAKNTVYVQMNSLKPEDTAVYYCAAEWYPYPWGYGYWGQGTQVTVSS” belongs “low polyreactivity”; to “QVQIVESGGGLFQAGGSIRLSCSASGFTFAFYSMGWYRQAPGKERQLVAAISWSGGSTYYADSVKWRFTISRDNAKNTVYLQMNSLKPEDNAVYYCNTDRGPIGDHYDYWGQGTQVTVSS”, “high polyreactivity”; to “QVQIVESGGGLFQAGGSRRLSCAASGVMFSYYAMGWYRQAPGKDRELVAAISRRVGSTYYADSVKGRFTISRDNAKNTVYLQMNSLITQVTAVYYWNAYLYSRYEFDYWVQGTQVTVSS”, “high polyreactivity”.
Regarding “QVQIVESGGGLLQAGGSLRLSCAASGSTFERYAMGWYRQAPWKERELVAAIDSSGGTTYYADSVKGRFTISRDNAKNTDYLQMNSLKPEDTAVYYCAADPGYYSVAYDYWGQGTQVTVSA”, the “polyreactivity (PSR sort gate)” value was “low polyreactivity”.
As for “QVQIVESGGGLVHAGGSLRLSCAASGRIFPDYAMGWYRQAPGKERELVATISYSGGNTNYADSVKGRFTISRDNAKNTVYLQMNSLKPEDTAVYYCNTDWYLPRYVLLGYFSGTEDYWGQGTQVTVSS”, the “polyreactivity (PSR sort gate)” value is “low polyreactivity”.
Consider “QVQIVESGGGLVQAAGSLRLTFAASGIIFYIYPMGWYRPAPGKERELVASISFSGTSTYYADSVKGRFTISRDNAKNTVYIQMHSLKPEDTAVYYCAAGARWRRALAVKPYQKYGYWGQGTQVTVSS”, for which the “polyreactivity (PSR sort gate)” value is “low polyreactivity”.
To “QVQIVESGGGLVQAGCSLRLSCAASGSTFLSNAMGLYRQAPGKERELVATNSFSRATYADSVKGRFTISRDNAKNTVYLQMNSLKPVDTAVYYCNRATINFSGKGDTAYDYWGQGTQVTVSS” belongs “low polyreactivity”.
The same measure for “QVQIVESGGGLVQAGGSHRLSCAATGLTFKYYAMGWYIQAPGKERELVAAISRSGGSTYYADSVKGRFTISRDNAKNTVYLQKNSLKPEDTAVYYCNARAGRYYSVYYPGDYWGQGTQVTVSS”: “high polyreactivity”; for “QVQIVESGGGLVQAGGSIRLSCAASGTTFNLYAMGWYRQAPGKERQLVAVISWSGGSTYYADSVKGRFTISRDNAKNTVYLQMNSLKPEDTAVYYCAAEYYQWLYPYNEYDYWGQGTQVTVSS”: “high polyreactivity”; for “QVQIVESGGGLVQAGGSLRISCAASGRTIHLYDMGWYRQAPGKERELVAAITWSSGRTYYADSVKGRVTISRDNAKNTVYVQMNILKPEDTEVYYCAADVWGGLLPGYDYWGQGTQVTVSS”: “high polyreactivity”.
For the sequence “QVQIVESGGGLVQAGGSLRISCAASGYIFLPYAMGWYRQAPGKERELVADITSVGRTYYADSVKGRFTISRDNEKNTVYLQMNSLKPEDTAVYYCAKRHSLGYGRSRYSSGYDYWGQGTQVTVSS”, the “polyreactivity (PSR sort gate)” value is listed as “high polyreactivity”.
The same measure for “QVQIVESGGGLVQAGGSLRLSCAASGFIFPANAMGWYRQAPGKEREFVAVISYSGGRTYYADSVKGRFTISRDNAKNTVYLQMNSLKPEDTSVYYCNVVRVATWGYDYWGQGSQVTVSS”: “low polyreactivity”.
On to “QVQIVESGGGLVQAGGSLRLSCAASGFIFQAYAMGWYRQAPGKERELVAAISSTSGRTYYADSVKGRFTISRDNAKNTVYLQMNSLKPEDTAVYYCARAVSSRNSGEYHYWGQGTQVTVSS”, for which the “polyreactivity (PSR sort gate)” value is given as “high polyreactivity”.
The same measure for “QVQIVESGGGLVQAGGSLRLSCAASGFIFRRNAMGWYRQAPGKERELVATIRASGGRTYYADSVKGRFTISRDNAKNTVYLQRNSLKPEDTAVYYCNAGKAPYLRYDYWGQGTEVTVSS”: “high polyreactivity”.
To “QVQIVESGGGLVQAGGSLRLSCAASGFIFYYYDMGWYRQAPWKERELVAVLTESGSSTYYADSVKGRFTITRDNAKNNVYLQMNSLKPEDTAVYYCAADGRASVGGLGDDYWGQGTQVTVSS” belongs “low polyreactivity”.

(Values after the nanobody polyreactivity screen of Harvey et al. (2022).)
